B1: CPEB3 Ribozyme (parent)
chain: GGGGGCCACAGCAGAAGCGUUCACGUCGCGGCCCCUGUCAGAUUCUGGUGAAUCUGCGAAUUCUGCUGU

The data set covers variants of B1. Kind of data set: self-cleavage, relative activity (ratio to wild type); higher = more cleavage; co-transcriptional.
For C35U A42U, the self-cleavage was 0.907.

As to C35U A42C, the self-cleavage was determined as 0.81. As to C35A U55C, the self-cleavage came out at 0.357.

C35A U55G: the self-cleavage is 0.196. With C35A U55A the figure was 0.244; with C35U U61G, 0.854. Take C35U U61A: the self-cleavage was determined as 0.596.

As for C35G C54G, the self-cleavage was 0.348.

On to U36A C57A, for which the self-cleavage turned out to be 0.213.

As to C34G U49C, the self-cleavage stood at 0.689. Turning to C34G U49A, the self-cleavage was 0.784. For C34G U49G, the self-cleavage was determined as 0.64. Take C35G C39A: the self-cleavage stood at 0.362. For C34U C66U, the self-cleavage was 0.977. On to C34U C66A, for which the self-cleavage was 0.973.

As for U36A A59C, the self-cleavage turned out to be 0.157.

Regarding U36A A59G, the self-cleavage was 0.263. As for C35A U64G, the self-cleavage was determined as 0.318. With C35A U64A, the self-cleavage turned out to be 0.205. For the variant C35A U64C, the self-cleavage is 0.276. For the variant C35A A59G, the self-cleavage is 0.34.

Take C35A A59U: the self-cleavage is 0.227. On to C35A A59C, for which the self-cleavage is 0.204. With C35A C63A, the self-cleavage is 0.276.

In the case of C35A U38A, the self-cleavage was 0.279. C35A U38C: the self-cleavage is 0.256. On to C35G U62A, for which the self-cleavage turned out to be 0.313.

With C35G U62G, the self-cleavage is 0.308. For the variant C35G U67A, the self-cleavage was 0.638. Consider C35G U67G, for which the self-cleavage came out at 0.574. With C35A G47U the figure was 0.259. As for C35A G47A, the self-cleavage is 0.292. C35A G47C: the self-cleavage was determined as 0.189. As to C35G A42G, the self-cleavage worked out at 0.503. On to C35G A42U, for which the self-cleavage was 0.308. Turning to C35G U43A, the self-cleavage stood at 0.335. Take C35G U43G: the self-cleavage amounted to 0.31. As to C35G U43C, the self-cleavage is 0.372. Then C34G G65U, with 0.325.

With C34G G65C, the self-cleavage amounted to 0.331. As for C35A G48U, the self-cleavage was found to be 0.249. With C34G G48C, the self-cleavage is 0.722. For the variant C34G G48A, the self-cleavage amounted to 0.765.

On to C34G G48U, for which the self-cleavage worked out at 0.753. Take C35U U69C: the self-cleavage was found to be 1.08. As for C35U U69G, the self-cleavage came to 1.01. For U36A C54U, the self-cleavage amounted to 0.35. C35G G48U: the self-cleavage came out at 0.491.

For the variant C35G G48A, the self-cleavage is 0.452.

In the case of C35U C63U, the self-cleavage came out at 0.954. Then C35U C63A, with 0.77.

Regarding C35U C63G, the self-cleavage worked out at 0.588. Consider C34G G47C, for which the self-cleavage was determined as 0.724. In the case of C34G G47U, the self-cleavage was found to be 0.605. Then C34G G47A, with 0.769; and U36A A51U, with 0.306. Then U36A A51C, with 0.242; and C35U C57A, with 0.323; and C34U G65C, with 0.682.

On to C34U G65A, for which the self-cleavage came out at 0.919. Then C35A U61G, with 0.288; and C35A U61A, with 0.231. For the variant C34G U38A, the self-cleavage amounted to 0.733. Consider C35G U38A, for which the self-cleavage is 0.417.

On to C35G U38G, for which the self-cleavage is 0.178. As for C34U U61A, the self-cleavage turned out to be 0.952. As to C34U U61G, the self-cleavage was 0.711.

Regarding C35G C66A, the self-cleavage came to 0.308.

Turning to C35G C66U, the self-cleavage is 0.474. Regarding C34U G48U, the self-cleavage is 0.983. Consider C35G U64C, for which the self-cleavage came to 0.274. Then C35G U64G, with 0.304.

For the variant C34U U69G, the self-cleavage was found to be 1.04. Then C34U U69C, with 1.07. In the case of C34U U69A, the self-cleavage was determined as 1.01. Turning to C34U G56C, the self-cleavage turned out to be 0.792. As to C34U G56U, the self-cleavage was 0.975.

For C34U G56A, the self-cleavage came out at 0.955.

In the case of C35U U36A, the self-cleavage amounted to 0.212. Regarding C35U U36G, the self-cleavage was determined as 0.237. Turning to C35U U36C, the self-cleavage was 0.941.

Take C35A U53C: the self-cleavage is 0.225. For the variant C35A U53A, the self-cleavage came out at 0.266. As for C35A U53G, the self-cleavage is 0.24. Turning to C34U, the self-cleavage turned out to be 0.991. With C35U G37A the figure was 0.253; with U36A A42C, 0.191. With U36A A42U the figure was 0.242; with C35U G48U, 0.987; with C35U G48A, 1.01.

Regarding C35U G48C, the self-cleavage was 0.964.

For C34G G50U, the self-cleavage is 0.839. With C34G G50C, the self-cleavage turned out to be 0.64.

Take C35A G41A: the self-cleavage amounted to 0.264. With C35A G41U the figure was 0.277; with C34U A40U, 0.838. For the variant C34U A40C, the self-cleavage came to 0.602.

With C34U A40G, the self-cleavage is 0.963.

C34U A60U: the self-cleavage came out at 0.452. As to C34U A60G, the self-cleavage stood at 0.789. Turning to C34U A60C, the self-cleavage was 0.371. Take C35A U62A: the self-cleavage is 0.306.

For C35A U62C, the self-cleavage worked out at 0.242. Then C35A U62G, with 0.21; and C35G G68A, with 0.741. For the variant C35G G68C, the self-cleavage was 0.77.

With C34U A59G, the self-cleavage was 0.899. Take C34U A59C: the self-cleavage was 0.661. As to C35U U46A, the self-cleavage was 0.907.

For the variant C35U U46C, the self-cleavage was found to be 0.976.

C35U U46G: the self-cleavage turned out to be 0.967. Then C35U U38A, with 0.901; and C35U U38G, with 0.184; and C35U U38C, with 0.876. Consider C34G U69C, for which the self-cleavage was 0.971. In the case of C34G U69A, the self-cleavage is 0.886. With C35G G41U, the self-cleavage was 0.341. On to C35U G47A, for which the self-cleavage came to 0.918.

As to C35U G47U, the self-cleavage came to 1.01. For C35U G47C, the self-cleavage came to 0.967. For C35A U67C, the self-cleavage is 0.324. C35G C57A: the self-cleavage amounted to 0.243.

C35G C57G: the self-cleavage came to 0.212. As for C34G U53C, the self-cleavage amounted to 0.562. With C34G U53G the figure was 0.27; with C35U U64C, 0.836; with C35U U64A, 0.83. With C35U A51U the figure was 0.904; with C35U A51C, 0.958; with C35U A51G, 0.904. As for C35U C66A, the self-cleavage is 0.828. Take C35A C57U: the self-cleavage amounted to 0.191. For the variant C35G C45U, the self-cleavage amounted to 0.483. Take C35G C45G: the self-cleavage turned out to be 0.452. With C35G C45A the figure was 0.475; with C35A U46A, 0.268; with C35A U46G, 0.356. On to C35U G56A, for which the self-cleavage came to 0.819. With C35U G56U, the self-cleavage was found to be 0.859. As to C35U G56C, the self-cleavage was 0.651. C35G G56U: the self-cleavage was 0.307. Take C35G G56C: the self-cleavage stood at 0.331. Regarding C35G G56A, the self-cleavage worked out at 0.297. On to C35G A59U, for which the self-cleavage is 0.254. Consider C35G U69A, for which the self-cleavage worked out at 0.543. C35G U69G: the self-cleavage worked out at 0.545. Turning to C35G U69C, the self-cleavage was found to be 0.77. Take C35U U49C: the self-cleavage amounted to 0.956. Then C35U U49G, with 0.909; and C35G U46C, with 0.378. Take C35A U43A: the self-cleavage turned out to be 0.185.

Consider C35A U43G, for which the self-cleavage was 0.227.

As for C35A U43C, the self-cleavage came to 0.264. As for C35G A51G, the self-cleavage was found to be 0.461.

With C35G A51C, the self-cleavage was found to be 0.426. C35G A51U: the self-cleavage turned out to be 0.445.

For the variant C35A A42G, the self-cleavage came out at 0.281. For C35A A42C, the self-cleavage was 0.229. With C35A A42U, the self-cleavage was found to be 0.19.

In the case of U36A A40C, the self-cleavage stood at 0.223. As to U36A A40G, the self-cleavage amounted to 0.248. Consider C35A U69A, for which the self-cleavage amounted to 0.358.

Take C35A U69C: the self-cleavage was found to be 0.417.

As for C35U C39G, the self-cleavage came to 0.878.

Regarding C35U C39A, the self-cleavage was 0.782. In the case of C34G U67G, the self-cleavage amounted to 0.894. As to C34G U67C, the self-cleavage was 0.766.

Source of the values: the RNAGym collection of RNA variant scans (doi:10.7554/elife.80360).
